For experiment [1], the target named is T1, human ORC1 (origin recognition complex subunit 1), full-length (human, UniProt Q13415 1-861).
T1 construct: Origin recognition complex subunit 1, human, full-length codon-optimized synthetic gene; No removal of the tag is described; HsORC1–5 was eluted from Streptactin beads with desthiobiotin; Samples for cryo-EM were mildly cross-linked with glutaraldehyde (GraFix); also called HsORC1; source: Sf21 insect cells, MultiBac baculovirus, co-overexpressed with the other ORC subunits; not shown: twin-strep …
T1 sequence (looked up): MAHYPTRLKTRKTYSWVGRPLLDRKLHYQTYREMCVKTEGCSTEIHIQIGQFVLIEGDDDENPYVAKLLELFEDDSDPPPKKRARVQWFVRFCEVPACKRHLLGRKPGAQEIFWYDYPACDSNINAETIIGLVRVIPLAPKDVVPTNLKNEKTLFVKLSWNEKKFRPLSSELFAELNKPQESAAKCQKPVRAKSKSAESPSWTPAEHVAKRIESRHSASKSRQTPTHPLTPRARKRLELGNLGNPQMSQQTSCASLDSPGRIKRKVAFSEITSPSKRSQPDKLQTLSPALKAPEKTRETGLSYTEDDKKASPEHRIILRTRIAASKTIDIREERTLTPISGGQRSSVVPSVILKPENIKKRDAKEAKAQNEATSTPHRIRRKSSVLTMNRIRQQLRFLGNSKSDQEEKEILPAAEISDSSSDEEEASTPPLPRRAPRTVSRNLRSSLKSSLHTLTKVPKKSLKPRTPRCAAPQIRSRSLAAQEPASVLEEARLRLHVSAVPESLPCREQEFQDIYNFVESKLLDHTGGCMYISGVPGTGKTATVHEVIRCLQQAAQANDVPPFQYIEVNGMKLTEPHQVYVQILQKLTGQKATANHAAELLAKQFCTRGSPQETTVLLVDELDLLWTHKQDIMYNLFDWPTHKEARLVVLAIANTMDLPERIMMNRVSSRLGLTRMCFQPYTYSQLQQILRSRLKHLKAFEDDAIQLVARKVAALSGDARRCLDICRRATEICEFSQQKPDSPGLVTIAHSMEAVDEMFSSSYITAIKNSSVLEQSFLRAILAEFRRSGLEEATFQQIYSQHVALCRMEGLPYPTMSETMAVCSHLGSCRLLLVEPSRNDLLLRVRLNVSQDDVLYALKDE
Put plainly: cryo-EM structure; HsORC1–5 purified by two steps (anti-HA beads, Streptactin beads) after high-salt treatment, mild fixation by GraFix; map at 4.4 Å, State I 5.0 Å, State II 4.8 Å, four subgroups by local classification on ORC1-AAA+. Conditions: both partners purified.

In experiment [2] the target is T1, human ORC1 (origin recognition complex …). Put plainly: co-IP; anti-Flag immunoprecipitation (M2-flag affinity beads, eluted with 0.5 mg/mL flag peptide) of N-terminal Flag-tagged ORC2 from soluble lysate of insect cells co-overexpressing ORC1 to ORC6; lysis buffer A: 25 mM HEPES-KOH pH 7.6, 0.2 M KCl, 5 mM ATP, 10% glycerol, 0.05% NP-40. Conditions: partners not purified.

B1: human ORC5 (origin recognition complex subunit 5), full-length (natural protein, UniProt O43913 1-435, looked up)
chain: MPHLENVVLCRESQVSILQSLFGERHHFSFPSIFIYGHTASGKTYVTQTLLKTLELPHVFVNCVECFTLRLLLEQILNKLNHLSSSEDGCSTEITCETFNDFVRLFKQVTTAENLKDQTVYIVLDKAEYLRDMEANLLPGFLRLQELADRNVTVLFLSEIVWEKFRPNTGCFEPFVLYFPDYSIGNLQKILSHDHPPEYSADFYAAYINILLGVFYTVCRDLKELRHLAVLNFPKYCEPVVKGEASERDTRKLWRNIEPHLKKAMQTVYLREISSSQWEKLQKDDTDPGQLKGLSAHTHVELPYYSKFILIAAYLASYNPARTDKRFFLKHHGKIKKTNFLKKHEKTSNHLLGPKPFPLDRLLAILYSIVDSRVAPTANIFSQITSLVTLQLLTLVGHDDQLDGPKYKCTVSLDFIRAIARTVNFDIIKYLYDFL
notes: Origin recognition complex subunit 5, human, full-length codon-optimized synthetic gene; Samples for cryo-EM were mildly cross-linked with glutaraldehyde (GraFix); also called HsORC5; source: Sf21 insect cells, MultiBac baculovirus, co-overexpressed with the other ORC subunits; not shown: HA, C-terminal, kept
For the molecule B1, the binding result in experiment [1] was “binds”.

B2: human ORC4 (origin recognition complex subunit 4), full-length (natural protein, UniProt O43929 1-436, looked up)
chain: MSSRKSKSNSLIHTECLSQVQRILRERFCRQSPHSNLFGVQVQYKHLSELLKRTALHGESNSVLIIGPRGSGKTMLINHALKELMEIEEVSENVLQVHLNGLLQINDKIALKEITRQLNLENVVGDKVFGSFAENLSFLLEALKKGDRTSSCPVIFILDEFDLFAHHKNQTLLYNLFDISQSAQTPIAVIGLTCRLDILELLEKRVKSRFSHRQIHLMNSFGFPQYVKIFKEQLSLPAEFPDKVFAEKWNENVQYLSEDRSVQEVLQKHFNISKNLRSLHMLLMLALNRVTASHPFMTAVDLMEASQLCSMDSKANIVHGLSVLEICLIIAMKHLNDIYEEEPFNFQMVYNEFQKFVQRKAHSVYNFEKPVVMKAFEHLQQLELIKPMERTSGNSQREYQLMKLLLDNTQIMNALQKYPNCPTDVRQWATSSLSWL
notes: Origin recognition complex subunit 4, human, full-length codon-optimized synthetic gene; No tag is named for this subunit; Samples for cryo-EM were mildly cross-linked with glutaraldehyde (GraFix); also called HsORC4; source: Sf21 insect cells, MultiBac baculovirus, co-overexpressed with the other ORC subunits
With B2, the binding result in experiment [1] is on record as “binds”.

B3: human ORC2 (origin recognition complex subunit 2), full-length (natural protein, UniProt Q13416 1-577, looked up)
chain: MSKPELKEDKMLEVHFVGDDDVLNHILDREGGAKLKKERAQLLVNPKKIIKKPEYDLEEDDQEVLKDQNYVEIMGRDVQESLKNGSATGGGNKVYSFQNRKHSEKMAKLASELAKTPQKSVSFSLKNDPEITINVPQSSKGHSASDKVQPKNNDKSEFLSTAPRSLRKRLIVPRSHSDSESEYSASNSEDDEGVAQEHEEDTNAVIFSQKIQAQNRVVSAPVGKETPSKRMKRDKTSDLVEEYFEAHSSSKVLTSDRTLQKLKRAKLDQQTLRNLLSKVSPSFSAELKQLNQQYEKLFHKWMLQLHLGFNIVLYGLGSKRDLLERFRTTMLQDSIHVVINGFFPGISVKSVLNSITEEVLDHMGTFRSILDQLDWIVNKFKEDSSLELFLLIHNLDSQMLRGEKSQQIIGQLSSLHNIYLIASIDHLNAPLMWDHAKQSLFNWLWYETTTYSPYTEETSYENSLLVKQSGSLPLSSLTHVLRSLTPNARGIFRLLIKYQLDNQDNPSYIGLSFQDFYQQCREAFLVNSDLTLRAQLTEFRDHKLIRTKKGTDGVEYLLIPVDNGTLTDFLEKEEEEA
notes: Origin recognition complex subunit 2, human, full-length codon-optimized synthetic gene; Samples for cryo-EM were mildly cross-linked with glutaraldehyde (GraFix); also called HsORC2; source: Sf21 insect cells, MultiBac baculovirus, co-overexpressed with the other ORC subunits; anti-HA then Streptactin beads for HsORC1–5); not shown: 3x Flag, N-terminal, kept
For the molecule B3, the binding result in experiment [2] is “binds”.

For the origin of these results see PMC7684300 (Cell Discovery, 2020).
